Data as given in publication PMC12525004, “Bacillus subtilis DinG 3′⟶5′ Exo(ribo)nuclease: A Helpmate to Mitigate Replication Stress” (International Journal of Molecular Sciences, 2025).
Substitutions are numbered along the chain they refer to.

T1: DinG (Bacillus subtilis, UniProt P54394 1-931)
T1 sequence: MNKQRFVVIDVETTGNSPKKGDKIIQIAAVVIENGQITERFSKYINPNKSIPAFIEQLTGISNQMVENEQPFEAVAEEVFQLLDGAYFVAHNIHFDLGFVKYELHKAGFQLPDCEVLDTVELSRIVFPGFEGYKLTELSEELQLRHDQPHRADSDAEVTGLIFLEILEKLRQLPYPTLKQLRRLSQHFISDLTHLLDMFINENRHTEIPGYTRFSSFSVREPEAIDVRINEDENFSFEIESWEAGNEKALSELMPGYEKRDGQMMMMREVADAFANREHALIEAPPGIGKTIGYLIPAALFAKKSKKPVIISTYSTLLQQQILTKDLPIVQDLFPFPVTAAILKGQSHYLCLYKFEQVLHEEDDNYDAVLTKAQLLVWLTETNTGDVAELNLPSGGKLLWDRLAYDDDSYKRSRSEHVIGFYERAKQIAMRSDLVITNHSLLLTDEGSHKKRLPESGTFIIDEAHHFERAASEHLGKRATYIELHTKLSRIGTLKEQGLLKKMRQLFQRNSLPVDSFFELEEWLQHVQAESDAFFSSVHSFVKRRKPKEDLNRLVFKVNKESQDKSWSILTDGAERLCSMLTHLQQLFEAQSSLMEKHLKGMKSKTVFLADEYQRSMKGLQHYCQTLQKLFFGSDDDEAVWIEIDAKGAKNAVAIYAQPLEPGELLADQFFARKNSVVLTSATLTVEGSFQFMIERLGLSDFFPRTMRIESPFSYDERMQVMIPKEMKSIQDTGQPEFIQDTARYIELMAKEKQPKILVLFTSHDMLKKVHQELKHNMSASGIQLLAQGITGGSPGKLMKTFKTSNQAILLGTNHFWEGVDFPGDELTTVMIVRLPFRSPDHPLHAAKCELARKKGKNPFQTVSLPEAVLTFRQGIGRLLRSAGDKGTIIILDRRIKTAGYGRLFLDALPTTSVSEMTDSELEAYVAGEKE

T2: DinG D10A E12A (B. subtilis, UniProt P54394 1-931, D10A | E12A)
T2 construct: DinG, Bacillus subtilis, 931 aa, with codons 10 (Asp) and 12 (Glu) replaced by Ala; cloned into pET3a (pCB1259); also called exonuclease-deficient DinG; ExoI-deficient DinG variant; source: E. coli BL21(DE3) [pLysS] carrying pCB1259, purified by the same protocol as wt DinG
T2 sequence (looked up): T1 sequence with D10A, E12A

T3: DinG K290A (B. subtilis, UniProt P54394 1-931, K290A)
T3 construct: DinG, Bacillus subtilis, 931 aa, with codon 290 (Lys, Walker A box) replaced by Ala; cloned into pET3a (pCB1260); also called ATPase-deficient DinG; source: E. coli BL21(DE3) [pLysS] carrying pCB1260, purified by the same protocol as wt DinG
T3 sequence (looked up): T1 sequence with K290A

B1: RecA (natural protein, B. subtilis, UniProt P16971 1-348, looked up)
chain: MSDRQAALDMALKQIEKQFGKGSIMKLGEKTDTRISTVPSGSLALDTALGIGGYPRGRIIEVYGPESSGKTTVALHAIAEVQQQGGQAAFIDAEHALDPVYAQKLGVNIEELLLSQPDTGEQALEIAEALVRSGAVDIVVVDSVAALVPKAEIEGDMGDSHVGLQARLMSQALRKLSGAINKSKTIAIFINQIREKVGVMFGNPETTPGGRALKFYSSVRLEVRRAEQLKQGNDVMGNKTKIKVVKNKVAPPFRTAEVDIMYGEGISKEGEIIDLGTELDIVQKSGSWYSYEEERLGQGRENAKQFLKENKDIMLMIQEQIREHYGLDNNGVVQQQAEETQEELEFEE
notes: RecA recombinase, Bacillus subtilis; overproduced from plasmid pBT61 in B. subtilis BG214; also called recombinase RecA
B2: RnhC (enzyme, B. subtilis, UniProt P94541 1-313, looked up)
chain: MSHSVIKVSLSAIDQMKMTYSGSLTASVPQGAVFQAKPPGCTITAYQSGKVLFQGKNAAAESARWGTAEPQEKKKTAKKPADPRYAPPADIAGMSVIGSDEVGTGDYFGPMTVVCAYVDKTMLPLMKELGVKDSKDLKDPQIIEIARNLIKTIPYSLLVLKNEKYNSMQEKGMSQGKMKALLHNQAITHLLRKLDGVKPEAILIDQFAEPGVYFNHLKGRDIVKERTYFSTKAEGIHLAVAAASIIARYSFLMEMDKLSRAAGMTLPKGAGPHVDEAAAKLILKKGASALRTFTKLHFANTQKAQRLADKKRS
notes: RnhC (RNase HIII), Bacillus subtilis; rnhC gene cloned into NdeI-linearised pET21b (pCB1242); also called RNase HIII; RnhC-His; source: E. coli BL21(DE3) [pLysS] carrying pCB1242 (rnhC-His), purified (Ni2+ His-Trap)

Assays:
[1] = molecular target: T1, DinG; assay: EMSA; 3 mM Mg2+; substrate degraded during assay; Kapp; EMSA, buffer D (composition not in material; 3 mM MgCl2, or 2 mM EDTA instead), 0.5 nM DNA, 37 °C, 10 min (text: 5 min), 15% native PAGE in TBE 1X; pH and salt; details: protein: recombinant; tags: none stated (pET3a, untagged); label: 5'-32P; single strand
[2] = molecular target: T1, DinG; assay: EMSA; 2 mM EDTA, no metal; Kapp; text names lssDNA38, Methods and Fig S4 legend give lssDNA45; EMSA, buffer D (composition not in material; 3 mM MgCl2, or 2 mM EDTA instead), 0.5 nM DNA, 37 °C, 10 min (text: 5 min), 15% native PAGE in TBE 1X; pH and salt; details: protein: recombinant; tags: none stated (pET3a, untagged); label: 5'-32P; single strand
[3] = molecular target: T2, DinG D10A E12A; assay: far-Western, overlay or dot blot; immuno-dot blot: proteins (75-300 ng) spotted on nitrocellulose, blocked with 5% skimmed milk in PBS, incubated 6 h at 4 °C with 200 ng/ml RecA in PBS, 0.5% skimmed milk powder, 0.1% Triton X-100; washed; retained RecA detected with polyclonal anti-RecA antibody; details: both partners purified
[4] = molecular target: T3, DinG K290A; assay: as above; details: both partners purified
[5] = molecular target: B1; assay: as above; details: both partners purified

## GTACGTATTCAAGATACCTCGTACTCTGTACTGACTCGGATCCTA (ssDNA, biotin-T at position 44 (second from 3' end)) [3'-Biotin gamma32P-lssDNA45]
[1]
  apparent K (half saturation): < 0.08 nM
[2]
  apparent K (half saturation): ~0.7 nM

## B1
[3]
  binding result: binds
[4]
  binding result: binds

## B2
[5]
  binding result: binds
